The values that follow come from article PMC8725002, “Crystal structure of a putative short-chain dehydrogenase/reductase from Paraburkholderia xenovorans” (Acta Crystallographica. Section F, Structural Biology …, 2022).

Data set [1] deals with the molecule itself. Kind of data set: crystal structure; apo PxSDR, space group P2(1), 1.45 Å; sitting drop, 0.2 M magnesium chloride, 0.1 M bis-Tris pH 5.5, 25% PEG 3350, 287 K; self-association: tetramer.
Data set [2] deals with the molecule itself. As to the kind of experiment: SEC; Superdex 75, 25 mM HEPES pH 7.0, 500 mM NaCl, 5% glycerol, 2 mM DTT, 0.025% azide; second step of the purification; single large peak at ~76 kDa; self-association.

B1: putative short-chain dehydrogenase/reductase from Paraburkholderia xenovorans (His-PxSDR) (enzyme)
chain: MSSAGRLQGKVALVTGAGCIGPGWGNGRAIAVRFAEEGAHVIAVDRDLASMDATLELVRAAGGSVTPCLCDVTDSASVERLVADSVARCGRVDILVNNVGAPSPGGPVALDEAQWAMQLELNLTTAFLMCKYVLPVMEQQGGGAIVNIASTSGIRWTGAAQVGYAAAKAGMIQMGRVVAVEYAAKNVRVNSVVPGLLHTPMVDTKIAHNQAGGDVELLLRKRQARIPMPFMGDGRDTANAALFLASDEARFVTGTEIVVDGGMSARCD
notes: putative short-chain dehydrogenase/reductase (PxSDR), Paraburkholderia xenovorans strain LB400, UniProt Q13GE3, full length, amplified from genomic DNA; copies therefore left empty; also called P. xenovorans SDR; putative short-chain reductase; source: E. coli BL21(DE3)R3 Rosetta, purified (IMAC on Ni-NTA HisTrap FF, SEC on Superdex 75)
Take B1: the “stoichiometry N” value came to 4 in data set [1] and 2 in data set [2].
